B1: FCHO1 μHD (purified, not on beads) [human] / EPS15 616–638 peptide [human] (parent complex)
chain 1: HGVSRGPSPVVLGSQDALPIATAFTEYVHAYFRGHSPSCLARVTGELTMTFPAGIVRVFSGTPPPPVLSFRLVHTTAIEHFQPNADLLFSDPSQSDPETKDFWLNMAALTEALQRQAEQNPTASYYNVVLLRYQFSRPGPQSVPLQLSAHWQCGATLTQVSVEYGYRPGATAVPTPLTNVQILLPVGEPVTNVRLQPAATWNLEEKRLTWRLPDVSEAGGSGRLSASWEPLSGPSTPSPVAAQFTSEGTTLSGVDLELVGSGYRMSLVKRRFATGMYLVSC
chain 2: NLDFFQSDPFVGSDPFKDDPFGK

Variants of: B1
Experiment: ITC; parent: 2.7e+03 nM
Variant chain 1 HGVSRGPSPVVLGSQDALPIATAFTEYVHAYFRGHSPSCLARVTGELTMTFPAGIVRVFSGTPPPPVLSFRLVHTTAIEHFQPNADLLFSDPSQSDPETKDFWLNMAALTEALQRQAEQNPTADYYNVVLLRYQFSRPGPQSVPLQLSAHWQCGATLTQVSVEYGYRPGATAVPTPLTNVQILLPVGEPVTNVRLQPAATWNLEEKRLTWRLPDVSEAGGSGRLSASWEPLSGPSTPSPVAAQFTSEGTTLSGVDLELVGSGYRMSLVKRRFATGMYLVSC [chain 1 S124D] has a Kd of 9.1 µM. chain 1 HGVSRGPSPVVLGSQDALPIATAFTEYVHAYFRGHSPSCLARVTGELTMTFPAGIVRVFSGTPPPPVLSFRLVHTTAIEHFQPNADLLFSDPSQSDPETKDFWLNMAALTEALQRQAEQNPTASYYNVVLLRYQFSRPGPQSVPLQLSAHWQCGATLTQVSVEYGYRPGATAVPTPLTNVQILLPVGEPVTNVRLQPAATWNLEEKRLTWRLPDVSEAGGSGRLSASWEPLSGPSTPSPVAAQFTSEGTTLSGVDLELVGSGYMMSLVKRRFATGMYLVSC [chain 1 R264M] gave a Kd of 19.6 µM. chain 1 HGVSRGPSPVVLGSQDALPIATAFTEYVHAYFRGHSPSCLARVTGELTMTFPAGIVRVFSGTPPPPVLSFRLVHTTAIEHFQPNADLLFSDPSQSDPETKDFWLNMAALTEALQRQAEQNPTASYYNVVLLRYQFSRPGPQSVPLQLSAHWQCGATLTQVSVEYGYRPGATAVPTPLTNVQILLPVGEPVTNVRLQPAATWNLEEKRLTWRLPDVSEAGGSGRLSASWEPLSGPSTPSPVAAQFTSEGTTLSGVDLELVGSGYAMGLVKRRFATGMYLVSC [chain 1 R264A, chain 1 S266G] was tested, and the Kd was 77.4 µM.

From article PMC4921775, “Transient Fcho1/2⋅Eps15/R⋅AP-2 Nanoclusters Prime the AP-2 Clathrin Adaptor for Cargo Binding” (Developmental Cell, 2016)
